Data reported in publication PMC2735609 (Cellular signalling, 2009).

Assays:
Assay in all cases: radioligand binding
[1] = molecular target: hLHR(D405N), on intact HEK293 cells (human, UniProt P22888 27-699, D405N)
[2] = molecular target: hLHR(Y546F), on intact HEK293 cells (human, UniProt P22888 27-699, Y546F)
[3] = molecular target: hLHR(D405N,Y546F), on intact HEK293 cells (human, UniProt P22888 27-699, D405N | Y546F)
Sequence of hLHR(D405N,Y546F), on intact HEK293 cells (P22888 27-699 D405N/Y546F): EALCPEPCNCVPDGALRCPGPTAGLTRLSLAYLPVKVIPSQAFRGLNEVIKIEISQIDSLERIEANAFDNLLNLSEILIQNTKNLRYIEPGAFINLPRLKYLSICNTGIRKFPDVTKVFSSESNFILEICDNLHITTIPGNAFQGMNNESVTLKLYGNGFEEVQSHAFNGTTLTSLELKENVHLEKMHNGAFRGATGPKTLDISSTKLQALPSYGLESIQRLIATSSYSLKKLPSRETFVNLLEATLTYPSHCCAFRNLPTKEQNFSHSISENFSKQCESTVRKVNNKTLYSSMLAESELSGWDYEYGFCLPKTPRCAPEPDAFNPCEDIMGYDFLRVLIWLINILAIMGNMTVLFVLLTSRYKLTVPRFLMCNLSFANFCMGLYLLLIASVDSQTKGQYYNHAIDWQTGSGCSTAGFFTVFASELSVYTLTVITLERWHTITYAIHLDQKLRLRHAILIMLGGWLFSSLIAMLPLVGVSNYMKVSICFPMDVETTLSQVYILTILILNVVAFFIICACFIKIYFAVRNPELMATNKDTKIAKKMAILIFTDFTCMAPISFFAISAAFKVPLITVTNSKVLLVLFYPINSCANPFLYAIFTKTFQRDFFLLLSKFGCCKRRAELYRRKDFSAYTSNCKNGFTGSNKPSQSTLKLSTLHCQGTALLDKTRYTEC

Sequence of hLHR(Y546F), on intact HEK293 cells (P22888 27-699 Y546F): as the sequence (P22888 27-699 D405N/Y546F) above, with N379D counted along it
Sequence of hLHR(D405N), on intact HEK293 cells (P22888 27-699 D405N): as the sequence (P22888 27-699 D405N/Y546F) above, with F520Y counted along it

hCG bound to intact cells [1]: 20.4 ng hCG/10^6 cells
hCG bound to intact cells [2]: 22.6 ng hCG/10^6 cells
hCG bound to intact cells [3]: 8.7 ng hCG/10^6 cells
B1: human chorionic gonadotropin (hCG), highly purified recombinant, 125I-labelled (ligand)
chain 1: not shown
chain 2: SKEPLRPRCRPINATLAVEKEGCPVCITVNTTICAGYCPTMTRVLQGVLPALPQVVCNYRDVRFESIRLPGCPRGVNPVVSYAVALSCQCALCRRSTTDCGGPKDHPLTCDDPRFQDSSSSKAPPPSLPSPSRLPGPSDTPILPQ
modifications: 125I label (which chain is not stated) | 125I label (which chain is not stated)
